Assay results reported in patent publication US20140020131.

Experiments:
[1] = molecular target: T1, engineered MS26+ endonuclease, intron-containing gene (ST-LS1 intron) (synthetic construct (Chlamydomonas reinhardtii I-CreI derived)?) (UniProt P05725); experiment: cell_activity; details: 3 of 257 T0 maize plants
T1 sequence: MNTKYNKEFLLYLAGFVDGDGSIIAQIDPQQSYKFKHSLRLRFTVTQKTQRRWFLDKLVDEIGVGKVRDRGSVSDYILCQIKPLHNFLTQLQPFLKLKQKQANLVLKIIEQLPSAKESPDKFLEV

[2] = test system: engineered MS26++ endonuclease (I-CreI-based) (synthetic construct (Chlamydomonas reinhardtii I-CreI derived)?); experiment: cell_activity; details: 15 mutations among 344 T0 maize plants as printed; Agrobacterium

GATGGTGACGTACGTGCCCTAC (double strand) [TS-MS26 target site (maize MS26 exon 5)]
activity (% T0 plants mutated) [1]: 1.2
activity (% T0 plants mutated) [2]: 5.8
